{
  "source": "patent US20100143940A1",
  "about": "“(3R)-HYDROXYACYL-ACP DEHYDRATASE ENZYMES USED IN THE BIOSYNTHESIS OF MYCOLIC ACIDS AND USE OF SAME FOR SCREENING ANTIBIOTICS” (priority 2007, published 2010)",
  "key": {"[1]": {"molecular_target": "2-trans-octenoyl-ACP (UniProt P0A6A8)"}, "[2]": {"molecular_target": "T1, 2-trans-octenoyl-ACP, P0A6A8", "T1 chain": "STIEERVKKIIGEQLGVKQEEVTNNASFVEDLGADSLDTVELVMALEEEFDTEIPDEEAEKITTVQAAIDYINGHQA"}, "[3]": {"test": "Hydratase activity monitored by spectrophotometry at 263 nm, control experiments of the isomerase test", "format": "biochemical", "details": "2-trans-decenoyl-CoA 10 μM; Rv0635-Rv0636 80 nM or Rv0636-Rv0637 543 nM; 100 mM sodium phosphate pH 7.0, 25° C.", "description": "(§1) These reactions are monitored by spectrophotometry at 263 nm by means of a thermostated Uvikon 923 spectrophotometer (Kontron Instruments). They are carried out in a quartz cuvette (optical path of 1 cm) in a total volume of 700 μl at 25° C. The reaction mixture contains 100 mM sodium phosphate buffer, pH 7.0, and varying concentrations of substrates. After equilibration of the base line on the reaction mixture in the absence of the enzyme, the reactions are triggered by the addition of enzyme, and then monitored for 1.5 to 5 min. The reaction rate corresponds to the initial rate measured by plotting the tangent of the curve OD=f(time) at time zero.\nThe conversions corresponding to the hydration reaction and to the dehydration reaction are associated, respectively, with a decrease and with an increase in the absorbance at 263 nm, linked to the double bond conjugated to the carbonyl. A variation in OD263 of 0.67 corresponds to a variation in concentration of 100 μM.\n(§2) The ability of the proteins to catalyze the isomerization reaction was studied in the presence of 3-cis-decenoyl-CoA (10 μM) and of Rv0635-Rv0636 enzyme (80 nM) or Rv0636-Rv0637 enzyme (543 nM). […] The reactions were monitored at 263 nm, where the increase in absorbance results from the conversion of the 3-cis-decenoyl-CoA into 2-trans-decenoyl-CoA."}, "[4]": {"test": "Isomerase activity, conversion of 3-cis-enoyl into 2-trans-enoyl, monitored at 263 nm", "format": "biochemical", "details": "3-cis-decenoyl-CoA 10 μM; Rv0635-Rv0636 80 nM or Rv0636-Rv0637 543 nM", "description": "as §1\nAs in certain FAS-II systems described, the dehydration step can be catalyzed either by a (3R)-hydroxyacyl-ACP dehydratase, or by a (3R)-hydroxyacyl-ACP dehydratase/isomerase of FabA type which, in vivo, converts the 2-trans-enoyls, formed by the dehydration step, into 3-cis-enoyls. […]\nas §2"}, "[5]": {"tested_on": "2-trans-octenoyl-ACP", "test": "Study of the ACP-dependency, hydration of the ACP derivative at 263 nm", "format": "biochemical, E. coli", "details": "2-trans-octenoyl-ACP 2 μM; Rv0635-Rv0636 80 nM, Rv0636-Rv0637 311 nM, Rv0636 alone 311 nM"}, "[6]": {"test": "Study of the ACP-dependency, hydration of the CoA derivative at 263 nm", "format": "biochemical", "details": "2-trans-octenoyl-CoA 2 μM; compared with control experiment (no enzyme)", "description": "as §1\nThe activities of the enzymes Rv0635-Rv0636 (80 nM), Rv0636-Rv0637 (311 nM) or Rv0636 alone (311 nM) were compared in the presence of 2-trans-octenoyl-ACP (2 μM) or of 2-trans-octenoyl-CoA (2 μM)."}, "[7]": {"test": "Substrate specificity, 2-trans-enoyl-CoA of various chain lengths", "format": "biochemical", "description": "as §1\nThe substrate specificity was studied in the presence of 2-trans-enoyl-CoA of various chain lengths (C4-C20). The initial rates were measured and compared at a very low substrate concentration in order to reduce as much as possible the solubility problems encountered with these amphiphilic compounds. […]\nThe tests were carried out in 100 mM sodium phosphate buffer, pH 7.0, in the presence of 3-hydroxybutyryl-CoA (25 or 75 μM) or of 2-trans-octenoyl-CoA (25 μM) or of crotonoyl-CoA (25 μM), and of enzyme (Rv0635-Rv0636: 80 nM; Rv0636-Rv0637: 543 nM). […] After addition of the enzyme, the reactions were monitored by spectrophotometry at 263 nM for 1.5 min. […]"}},
  "data": [
    {"molecule": "Rv0635-Rv0636 heterodimer", "values": [
      {"measurement": "specific activity (hydration followed at 263 nm), 2 µM substrate, 80 nM enzyme", "setting": "[1]", "value": 0.28, "unit": "µmol/min/mg"}
    ]},
    {"molecule": "Rv0636-Rv0637 heterodimer (protein) chain 1: HHHHHHMALREFSSVKVGDQLPEKTYPLTRQDLVNYAGVSGDLNPIHWDDEIAKVVGLDTAIAHGMLTMGIGGGYVTSWVGDPGAVTEYNVRFTAVVPVPNDGKGAELVFNGRVKSVDPESKSVTIALTATTGGKKIFGRAIASAKLA chain 2: MALKTDIRGMIWRYPDYFIVGREQCREFARAVKCDHPAFFSEEAAADLGYDALVAPLTFVTILAKYVQLDFFRHVDVGMETMQIVQVDQRFVFHKPVLAGDKLWARMDIHSVDERFGADIVVTRNLCTNDDGELVMEAYTTLMGQQGDGSARLKWDKESGQVIRTA", "values": [
      {"measurement": "specific activity (hydration followed at 263 nm), 2 µM substrate", "setting": "[2]", "value": "0.047 µmol/min/mg of protein"}
    ]},
    {"molecule": "Rv0636-Rv0637: recombinant heterodimeric (3R)-hydroxyacyl-ACP dehydratase of the M. tuberculosis H37Rv FAS-II system, Rv0636 plus Rv0637 (protein) chain 1: HHHHHHMALREFSSVKVGDQLPEKTYPLTRQDLVNYAGVSGDLNPIHWDDEIAKVVGLDTAIAHGMLTMGIGGGYVTSWVGDPGAVTEYNVRFTAVVPVPNDGKGAELVFNGRVKSVDPESKSVTIALTATTGGKKIFGRAIASAKLA chain 2: MALKTDIRGMIWRYPDYFIVGREQCREFARAVKCDHPAFFSEEAAADLGYDALVAPLTFVTILAKYVQLDFFRHVDVGMETMQIVQVDQRFVFHKPVLAGDKLWARMDIHSVDERFGADIVVTRNLCTNDDGELVMEAYTTLMGQQGDGSARLKWDKESGQVIRTA", "values": [
      {"measurement": "specific activity", "setting": "[3]", "value": "0.02 μmol/min/mg of protein"},
      {"measurement": "isomerase activity", "setting": "[4]", "value": "do not exhibit any isomerase activity"},
      {"measurement": "specific activity in the presence of 2-trans-octenoyl-ACP", "setting": "[5]", "value": 0.047, "unit": "µmol/min/mg"},
      {"measurement": "activity in the presence of 2-trans-octenoyl-CoA", "setting": "[6]", "value": "not significant"},
      {"measurement": "activity on C12-C20 trans-2-enoyl-CoAs at low substrate concentration", "setting": "[7]; 2.5 μM substrate", "value": "no activity could be detected"},
      {"measurement": "activity in the presence of short-chain (C4-C8) substrates", "setting": "[7]; 2.5 or 25 μM 2-trans-enoyl-CoA, Rv0635-Rv0636 80 nM, Rv0636-Rv0637 543 nM", "value": "inactive"}
    ]},
    {"molecule": "Rv0636 homodimer: recombinant Rv0636 protein of M. tuberculosis H37Rv (SEQ ID No. 2) carrying the hydratase 2 motif, tested alone (protein, listed as Mycobacterium tuberculosis, homodimer) MALREFSSVKVGDQLPEKTYPLTRQDLVNYAGVSGDLNPIHWDDEIAKVVGLDTAIAHGMLTMGIGGGYVTSWVGDPGAVTEYNVRFTAVVPVPNDGKGAELVFNGRVKSVDPESKSVTIALTATTGGKKIFGRAIASAKLA", "values": [
      {"measurement": "specific activity in the presence of 2-trans-octenoyl-ACP", "setting": "[5]", "value": "no activity"}
    ]}
  ]
}
